Results taken from patent US20030186329A1, “Use of substrate subtraction libraries to distinguish enzyme specificities” (The Scripps Research Institute, priority 1998, published 2003).

Columns and labels:
Assay type in all cases: biochemical
t-PA [1] = target: T1, t-PA (Homo sapiens, UniProt P00750); test: Dot blot assay of digestion of individual substrate phage stocks by t-PA; settings: for selectivity of substrate phage for t-PA or u-PA: digestion by t-PA and u-PA; for digestion of phage stock by t-PA: loss of antibody epitopes
Protocol: (§1) To verify that the substrate subtraction library had yielded substrates that were preferentially cleaved by t-PA, digestion of individual phage stocks by t-PA and u-PA was analyzed by a dot blot assay that was performed as previously described (Ding, L., et al., 1995; Smith, M. M., et al., 1995) (FIG. 3). Loss of positive staining indicates loss of antibody epitopes from the phage due to proteolytic cleavage of the random hexamer region.
(§2) In general, with the exception of the screening protocol, procedures followed were those used in Example 1. Digestion of the phage was performed using enzyme concentrations varying from 2-10 μg/ml and incubation times varying from 0.5-10 hours. Phage precipitation and dot blot analysis were performed as described in Example 1. Individual phage stocks were prepared and digested with no enzyme, t-PA, u-PA, or u-PA in the presence of 1 mM amiloride, a specific inhibitor of u-PA′ for periods of time varying from 15 minutes to 10 hours. Individual reaction mixtures were spotted onto a nitrocellulose filter using a dot blotter apparatus (BioRad). The filter was probed with MAb 3E-7 and developed using the Amersham Western ECL kit. Loss of positive staining indicates loss of antibody epitopes from the phage due to proteolytic cleavage of the randomized hexamer region.

t-PA [2] = target: T1, t-PA; test: Kinetics of cleavage of synthetic peptides by t-PA (HPLC, Eadie-Hofstee analysis); settings: for Km / kcat, t-PA: hydrolysis of peptide by t-PA; for t-PA:u-PA Selectivity: ratio of kcat/Km for peptide hydrolysis, t-PA over u-PA
Protocol: (§3) Concentrations of functional t-PA and u-PA were measured by active site titration with 4-methylumbelliferyl p-guanidinobenzoate (Jameson, G., et al., (1973) Biochem. J. 131, 107-117) using a Perkin-Elmer LS 50B Luminescence Fluorometer as previously described (Madison, E. L., et al., (1995) J. Biol. Chem. 270: 7558-7562). In addition, the enzymes were titrated with a standard PAI-1 preparation that had been previously titrated against a trypsin primary standard. Total enzyme concentrations were measured by ELISA.
(§4) Individual phage stocks were prepared and digested with no enzyme, t-PA, u-PA, or u-PA in the presence of 1 mM amiloride, a specific inhibitor of u-PA. Kinetic-data were obtained by incubating various concentrations of peptide with a constant enzyme concentration to achieve between 5 and 20% cleavage of the peptide in each reaction. For assays with u-PA, enzyme concentration was either 815 or 635 nM. For assays with t-PA enzyme concentration was 700 nM. […] The buffer used in these assays has been described (Madison, E. L., et al., 1995). Reactions were stopped by addition of triflouroacetic acid to 0.33% or by freezing on dry ice. Cleavage of the 13 and 14 residue peptides was monitored by reverse phase HPLC as described (Madison, E. L., et al., 1995). The 4-6 residue peptides were acylated at their amino termini and amidated at their carboxyl termini. Cleavage of the 4-6 residue peptides was monitored by hydrophilic interaction HPLC chromatography (HILIC) (Alpert, A. J. (1990) J. Chromatog. 499, 177-196.) using a polyhydroxyaspartamine column from PolyLC (Columbia, Md.). Buffer A was 50 mM triethylamine phosphate in 10% acetonitrile and buffer B was 10 mM triethylamine phosphate in 80% acetonitrile. Peptides were eluted by a gradient which was varied from 100% Buffer B to 100% Buffer A during a 13 minute interval. The percent of cleaved peptide was calculated by dividing the area under the product peaks by the total area under substrate and product peaks. For all peptides containing multiple basic residues, mass spectral analysis of products confirmed that cleavage occurred at a single site and identified the scissile bond. Data were interpreted by Eadie-Hofstee analysis. Errors were determined as described (Taylor, J. R., 1982) An introduction to error analysis. The study of uncertainties in physical measurements. University Science Books, Mill Valley, Calif.) and were <25%.
(§5) Kinetic data were obtained by incubating various concentrations of peptide with a constant enzyme concentration to achieve between 5 and 20% cleavage of the peptide in each reaction as described in Example 1.

u-PA [3] = target: T2, u-PA (Homo sapiens, UniProt P00749); test: Kinetics of cleavage of synthetic peptides by u-PA (HPLC, Eadie-Hofstee analysis); settings: hydrolysis of peptide by u-PA
T2 construct: purchased Jack Henkin (Abbott Laboratories)
Protocol: as §3, §4, §5

u-PA [4] = target: T2, u-PA; test: Dot blot assay of digestion of individual substrate phage stocks by u-PA; settings: loss of antibody epitopes
Protocol: as §1
as §2, with “The filter was probed with MAb 3E-7 and developed using the Amersham Western ECL kit. Loss of positive staining indicates loss of antibody epitopes from the phage due to proteolytic cleavage of the randomized hexamer region.” left out
Two changes were made in the experimental protocol to examine the P3 and P2 preferences of u-PA. […] Although this semi-quantitative assay cannot provide kinetic constants, it can provide an accurate rank ordering of the lability of the substrate phage clones.

u-PA [5] = test: Kinetics of cleavage of synthetic peptides by u-PA (HPLC, Eadie-Hofstee analysis); settings: ratio of kcat/Km for peptide hydrolysis, u-PA over t-PA
Protocol: as §3, §4, §5

T1 sequence (P00750 36-562): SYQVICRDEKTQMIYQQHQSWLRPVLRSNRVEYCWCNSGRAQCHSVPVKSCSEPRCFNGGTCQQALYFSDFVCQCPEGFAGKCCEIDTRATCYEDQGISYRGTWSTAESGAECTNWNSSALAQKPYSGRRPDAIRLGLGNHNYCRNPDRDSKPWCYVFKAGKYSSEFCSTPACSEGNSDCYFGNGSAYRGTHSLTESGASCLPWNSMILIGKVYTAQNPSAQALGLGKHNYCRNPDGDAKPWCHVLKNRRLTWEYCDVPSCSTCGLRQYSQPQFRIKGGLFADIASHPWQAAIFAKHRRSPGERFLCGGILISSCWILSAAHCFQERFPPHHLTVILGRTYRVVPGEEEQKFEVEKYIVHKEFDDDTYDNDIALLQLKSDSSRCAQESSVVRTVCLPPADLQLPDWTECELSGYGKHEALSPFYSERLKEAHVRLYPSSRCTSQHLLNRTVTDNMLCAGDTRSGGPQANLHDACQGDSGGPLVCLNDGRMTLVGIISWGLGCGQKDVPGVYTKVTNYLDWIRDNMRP

FRGRAA [Phage 7]
selectivity of substrate phage for t-PA or u-PA (t-PA [1]): t-PA selective substrate

LGGSGR↓KASLSLE (LGGSGRKASLSLE; listed as Homo sapiens) [XIV]
Km (t-PA [2]): 5.1 mM
kcat, t-PA (t-PA [2]): 0.168 s⁻¹
Km (u-PA [3]): 1.13 mM
kcat, u-PA (u-PA [3]): 1.14 s⁻¹

SGR↓S (SGRS; listed as Homo sapiens) [XV]
Km (t-PA [2]): 15 mM
kcat, t-PA (t-PA [2]): 5.0 s⁻¹
t-PA:u-PA Selectivity (t-PA [2]): 0.30
Km (u-PA [3]): 2.1 mM
kcat, u-PA (u-PA [3]): 2.3 s⁻¹

RIARRA [Substrate phage 51]
digestion of phage stock by t-PA (t-PA [1]): substrate of both t-PA and u-PA
digestion of phage stock by u-PA (u-PA [4]): substrate of both t-PA and u-PA

LGGSGR↓SATRDLE (LGGSGRSATRDLE; listed as Homo sapiens) [XIII]
Km (t-PA [2]): 1.5 mM
kcat, t-PA (t-PA [2]): 0.068 s⁻¹
Km (u-PA [3]): 0.733 mM
kcat, u-PA (u-PA [3]): 0.54 s⁻¹

GSGK↓S (GSGKS; listed as Homo sapiens) [XVIII]
Km (t-PA [2]): 44 mM
kcat, t-PA (t-PA [2]): 0.07 s⁻¹
Km (u-PA [3]): 4.25 mM
kcat, u-PA (u-PA [3]): 0.82 s⁻¹
u-PA:t-PA Selectivity (u-PA [5]): approximately 120

FRGR↓K (FRGRK; listed as Homo sapiens) [VII]
t-PA:u-PA Selectivity (t-PA [2]): approximately 74

SGK↓S (SGKS; listed as Homo sapiens) [XVII]
Km (t-PA [2]): 28 mM
kcat, t-PA (t-PA [2]): 0.19 s⁻¹
t-PA:u-PA Selectivity (t-PA [2]): 0.04
Km (u-PA [3]): 7.9 mM
kcat, u-PA (u-PA [3]): 1.22 s⁻¹

SGR↓SA (SGRSA; listed as Homo sapiens) [XVI]
Km (t-PA [2]): 40 mM
kcat, t-PA (t-PA [2]): 2.4 s⁻¹
Km (u-PA [3]): 3.1 mM
kcat, u-PA (u-PA [3]): 3.7 s⁻¹

RSANAI [Phage 33]
selectivity of substrate phage for t-PA or u-PA (t-PA [1]): u-PA selective substrate

PGRVVG [Control phage PL, reference compound]
digestion of phage stock by t-PA (t-PA [1]): not digested by either enzyme
digestion of phage stock by u-PA (u-PA [4]): not digested by either enzyme
